The series can be described thus: yeast display, Sf9 membrane polyspecificity reagent, FACS + sequencing; frameworks hold sequencing errors. In short, it runs like this:
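Sorting gates, low and high (top ~1%), were placed on anti-HA fluorescence to track expression and on streptavidin fluorescence to track reagent binding. A clone's polyreactivity label is taken from the gate it came out of. The reagent was 10% biotinylated, detergent-solubilized Sf9 membrane, applied for 1 hour at 4 °C to galactose-induced yeast display cells.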
Regarding “QVQLVESGGGLVQAGGSLRLSCAASAFTLLSYAMGWYRQAPGKDRELVASITQRGGSTYYADSVKGRFTISRDNAKNTVDLQMNSLKPEDTAVYYCAARSGYGYRYYYWGQGTQVTVSS”, the “polyreactivity (PSR sort gate)” value is reported as “low polyreactivity”.

As for “QVQLVESARGLVQAGGSLRLSCAASGYTIRANAMGWYRQAPGKEREFVAAISRSGGSTYYADSVKGRFTISRDNAKNTVYLQMNCLKPEDTAVYYCNNLYPYYATHTTRGLDYWGQGTQVTVSS”, the “polyreactivity (PSR sort gate)” value is listed as “high polyreactivity”.

Regarding “QVQLQESVGGLVQAGGSLLLSCAASGNIFPTDRMGWYRQAPGKELEFVATISHGGSTNYADSVKGRFTISRDNAKNTVYLEMNSLKPEDTAVYYCAVWSLGRWRHYFWGQGTQVTVSS”, the “polyreactivity (PSR sort gate)” value is on record as “low polyreactivity”.

For “HVQLVESGGGLVQAGGSLRLSCAASGITLVRYAMGWFRPAPGKERELVAAISSSGGSTYYADSVKGRFTISRDNAKNTVYLQMNSLQPEDTAVYYCNAYVHSRRVEFNYWGQGTQVTVSS”, the “polyreactivity (PSR sort gate)” value is “high polyreactivity”.

Regarding “QVQLVESGGGLVQAGGSLRLSCAASVSPFWLNAMGWYRPAPGKEREFVAAITVGGGSTYYADSVKGRFTISRDNAKNTDYLQMNSLKPEDTAVYYCAALYRFWYPGNSYDYWGQGTQVTVSS”, the “polyreactivity (PSR sort gate)” value is reported as “high polyreactivity”.

As for “QVQLVESGGGLVQAGGSLRLSCAASGSTFVYYTMGCYRPAPGKETELVAAINGSGGSTYYADSVKRRFTISRDNAKNTVYLQMNSLKPEDTAVYYCDAVYWDGDDYWGQGTQVTVSS”, the “polyreactivity (PSR sort gate)” value is recorded as “high polyreactivity”.

Turning to “QVQLVESGGGLVQAGGSLRLSCAASGSILTYNAMGWYRQAPGKERELVAAITSSGNTNYADSVKGRFTISRDNAKNTVYLQMNSLKPEDTAVYYCARDLREWGQGTQVTVSS”, the “polyreactivity (PSR sort gate)” value is given as “low polyreactivity”.

As to “QVQLVESGGGLVQAGGSLRLSCAASGLTINYYAMGLYRQAPGKERELVAAITWRGGSTYYADSVKGRFTISRDNAKNTVYLQMNSLKPEDTAVYYCAADPGPYGYYYWGQGTQVTVSS”, the “polyreactivity (PSR sort gate)” value is given as “low polyreactivity”.

Take “QVQLVESGGGLVQAGGSLRISCAASGSTFDGYAMGWYRQAPGKERELVAAITRGGSTNYADSVKGRFTISRDNAKNTVYLQMNSLKPEDTAVYYCNARLWKRYPYDGYGYWGQGTQVTVSS”: the “polyreactivity (PSR sort gate)” value is recorded as “high polyreactivity”.

On to “QVQLVESGGGLVQAGGSLRLSCAASGYTFRSYAMGWYRQAPGKEWEFVASISSSGGSTYYADSVKGRFTISRDNAKNTVYLQMNSLKPEDTAVYYCAASVVSYPYDEYDYWGQGTQVTVSS”, for which the “polyreactivity (PSR sort gate)” value is “low polyreactivity”.

Take “QVQLVESGGCLVQAGGSLRLSCAASGSTFPRYAMGWYRQAPGKERELVATINSGGSTYYADSVKGCFTISRDNAKNTVYLQMNSLKPEDTAVYYCAAGYRWTYTSGTYIRYNYWGQGTQVTVSS”: the “polyreactivity (PSR sort gate)” value is listed as “high polyreactivity”.

In the case of “QVQLVESGGGLVQAGGSLRLSCAASGLTFVKYAMGWYRPAPGKERELVAAISRSGGRTYYADSVKGRFTISRDNAKNTVYLQMNSLKPEDTAVYYCNADHVRGNHGYDYWGQGTQVTVSS”, the “polyreactivity (PSR sort gate)” value was “high polyreactivity”.

“QVQLVESGGGLVQAGGSLRLSCAASGSIFPNYAMGWYRQAPGKERELVAAISSSGGRTYYADSVKGRFTISRDNAKNTVYLQMNCLKPEDTAVYYCAADTYTSAQHEKYDYWGQGTQVTVSS”: the “polyreactivity (PSR sort gate)” value is given as “low polyreactivity”.

Take “QVQLVESGGGLVQAGGSLRLSCAASGRIFRGYVMGWYIQAPGKERELVAAISINGGRTYYADSVKGRFTISRDNAKNTVYLQMNSLKPEDTAVYYCAAEPIYFRGLYYYWGLGTQVTVSS”: the “polyreactivity (PSR sort gate)” value is “high polyreactivity”.

On to “QVQLVESGGGLVQAGGSLRLSCAASGSTLYYYAMGWYRQAPGKERELVASITKSGASTYYADSVKGRFTISRDNAKNTVYLLMNSLKPEDTAVYYCAADVGAIYDNAENGYWGQGTQVTVSS”, for which the “polyreactivity (PSR sort gate)” value is “low polyreactivity”.

In the case of “QVQLVESAGGLVQEGGSLRIRCAASGRIYQLYTMGGYRQAPGKERELDAAITTGTSTSYAYSVKGRFTISRDNAKNTVYLLMYSLKPVDTAFYFCNKGSVSYYSVFVPYESDYGGQGTQVTVSS”, the “polyreactivity (PSR sort gate)” value is on record as “low polyreactivity”.

In the case of “QVQLVESGGGLVQAGGSLRLSCAASGRTFWAYAMVWYRQAPGKERELVADITNGGSTYYADSVKGRFTISRDNAKNTVYLQMNSLKPEDTAVYYCNALTHWAPASYEYDYWGQGTQVTVSS”, the “polyreactivity (PSR sort gate)” value is reported as “low polyreactivity”.

Consider “QVQLVESGGGLGQAGGSLRLSCAASGSTFIDNAMGWYRQAPGKERELVAAINSSGGNTYYADSVKWRFTISRDNAKNTVYLQMNSLKPEDTAVYYCNAEFYVLYFYDYEYWGQGTQVTLSS”, for which the “polyreactivity (PSR sort gate)” value was “low polyreactivity”.

For the sequence “QVQLVESGGGLVQAGGSLRLSCAASGRTFGRNAMGWYRQAPGKERELVAAISSDGGRTYYADSVKGRFTISRDNAKNTVYLQMNSLKPEDTAVYYCAKQRSYSDGGYWGQGTQVTVSS”, the “polyreactivity (PSR sort gate)” value is recorded as “low polyreactivity”.

“QVQLVESGGGLVQAGGSLRLSCAASGSIFGRYPMGWYRQAPGKERELVAAISRRGGSTYYADSVKGRFTISRDNAKNTVYLQMNSLKPEDTAVYYCAARPFVKHDYWGQGTQVTVSS”: the “polyreactivity (PSR sort gate)” value is “high polyreactivity”.

Take “QVQLVESGGGLVQAGGSLRLSCAASGRTLSRNAMGWYRQAPGKERELVAAINYSGGITYYADSVKGRFTISRDNAKNTVYLQMNSLKPEDTAVYYCAATVKYWGQGTQVTVSS”: the “polyreactivity (PSR sort gate)” value is listed as “high polyreactivity”.

“QVQLVESGGGLVQAGGSLRLSCAASGFIFRRYAMGWYRQAPGKERELVAIITSGVRTYSADSVKGRFTISRDNAKNTVYLQMNSLKPEDTAVYYCAARVKDYPEYDYWGQGTQVTVSS”: the “polyreactivity (PSR sort gate)” value is recorded as “low polyreactivity”.

Regarding “QVQLVESGGGLVQAGGSLRLSCAASGRIFSGYALGWYRQAPGKERELVAAISQRGGSTTYADSVKGRFTISRDNAKNTVYLQMNSLKPEDTAVYYCAKRYTYPSGYDYWGQGTEVTVSS”, the “polyreactivity (PSR sort gate)” value was “low polyreactivity”.

For the sequence “QVQLVESGGGLVQAGGSLRLSFPASGFTFFGYAMGWYRQAPGKERELVAAISTIDGDTYYADSVKGRFTISRDNAKNTVYLQMNSLKPEDTAVYYCAADDYIDGDDYWGQGTQVTVSS”, the “polyreactivity (PSR sort gate)” value is recorded as “low polyreactivity”.

Turning to “QVQLVESGGGLVQAGGSLRLSCAASGSTFVTNAMGWYSQAPGKEREFVAAISNSSGSTYYADSVKGRFTISRDNAKNTVYLQMNSLKPEDTAVYYCNATPDDWLQEDYWGQGTQVTVSS”, the “polyreactivity (PSR sort gate)” value is given as “low polyreactivity”.

For “QVQLVESGGGLVQAGGSLRLSCAASGSTFDIYAMGWYRQAPGKERELVAAIRYSGGSTYYADSVKGRFTISRDNAKYTVYLQMNSLKPEDTAVYYCAADPYQLWHYYYFGMDYWGQGTEVTVSS”, the “polyreactivity (PSR sort gate)” value was “low polyreactivity”.

Consider “QVHLVESGGGLVQAGGSLRLSCAASGRIFYRNAMGWYRHAPGKERELVAAISRRGGSTSYADSVQGRFTISRDNAKNTVYLQMTSLKPEDTAVYYCAASRFRTGQEDDYWGQGTQVTVSS”, for which the “polyreactivity (PSR sort gate)” value is “high polyreactivity”.

Consider “QVQLVESGGGLVQAGGRLRLSCAASGSTFWYYAMGWYRQAPGKEREFVAGISTSGVSTYYADSVKGRFTISRDNAKNTVYLQMNSLKPEDTAVYYCAADYIFRRAGWYLMDYWGQGTQVTVSS”, for which the “polyreactivity (PSR sort gate)” value is “high polyreactivity”.

“QVQLEESRGGLGQAGGSLRLICAASGRTFAYNPMGWSRQAPGKERELVSAITWSGGSTYYADSVKGRFTISRDNAKNTVYLQMNSLKPEDTAVYYCAREWFQYSPYHRFDYWGQGTQVTVSS”: the “polyreactivity (PSR sort gate)” value was “high polyreactivity”.

As for “QVQLVESGGGLVQAGGSLRLSCAASGSTFGTYAMGWYRQAPGKERELVAAISYRGGSTYYADSVKGRFTISRDNAKNTVYLQMNSLKPEDTAVYYCATRKYAATGYDYWGQGTQVTVSS”, the “polyreactivity (PSR sort gate)” value is reported as “high polyreactivity”.

These data come from the nanobody polyreactivity screen of Harvey et al. (2022).
